Tests used:
[1] = molecular target: BG505 NFL (native flexibly linked) HIV-1 envelope glycoprotein trimer from 293F cells (HIV-1); test: SEC; Superdex 200 (S200) after lectin-affinity column; UV absorbance at 280 nm
[2] = molecular target: BG505 NFL (native flexibly linked) HIV-1 envelope glycoprotein trimer from CHO-M cells (HIV-1); test: as above
[3] = molecular target: BG505 NFL (native flexibly linked) HIV-1 envelope glycoprotein trimer from CHO-M cells (HIV-1); test: native gel or EMSA; blue-native PAGE of SEC fractions (F4-F9) of lectin-purified pool Z supernatant
[4] = molecular target: BG505 NFL (native flexibly linked) HIV-1 envelope glycoprotein trimer from CHO-M cells (HIV-1); test: negative-stain electron microscopy; peak SEC fraction from pool Z; 2% uranyl formate, 2D class averages

Substance | stoichiometry N [1] | stoichiometry N [2] | stoichiometry N [3] | stoichiometry N [4]
BG505 NFL (native flexibly linked) HIV-1 envelope glycoprotein trimer from 293F cells | 3 |  |  | 
BG505 NFL (native flexibly linked) HIV-1 envelope glycoprotein trimer from CHO-M cells |  | 3 | 3 | 3

From paper PMC5976746
